This note sets out measurements from the supplement of paper PMC10567573.

The nature of the data set: protein stability index of a GFP-peptide fusion (GPS, HEK-293T) (PSI 1-6); higher = more stable.
[1] abbreviates: treatment: DMSO, c terminus: a fixed tail appended.
The mark [2] stands for this setting: treatment: MLN4924 1 uM, 8 h, c terminus: a fixed tail appended.
Setting [3] is: treatment: DMSO, c terminus: native.
Setting [4] is: treatment: MLN4924 1 uM, 8 h, c terminus: native.

± gives the standard deviation.
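Further: 24-mer peptide tiles fused after GFP, lentivirally expressed, FACS-sorted into six equal bins by GFP/DsRed ratio, decoded by Illumina sequencing, PSI is the read-weighted mean bin number.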

For the sequence GGGEGHQPAGNRRGQARRLAPNFR [BEX3], the protein stability index was 4.93 ± 0.17 under setting [1] and 4.92 ± 0.26 under setting [2].

Consider GGGNARATGMFLQYTVPGTEGVTQ [ZFYVE21], for which the protein stability index stood at 3.51 ± 0.35 under setting [1] and 3.57 ± 0.18 under setting [2].

Consider GGMALGVAGLAGLIGLAVSKSKS [FIS1], for which the protein stability index amounted to 2.35 ± 0.34 under setting [3] and 1.78 ± 0.27 under setting [4].

Take GGYGSSFGGVDGLLAGGEKATMQN [KRT17]: the protein stability index under setting [1] was determined as 4.06 ± 0.12 and the protein stability index under setting [2] came out at 4.395 ± 0.027.

As for GHHQGMPGYLPGAMPPYGQGPPMV [ZNF207], the protein stability index by setting is: under setting [1], 2.86 ± 0.43; under setting [2], 2.84 ± 0.2.

As for GHLSKDVDENDSHEGEDQFLSLEA [DLC1], the protein stability index was determined as 5.63 ± 0.17 under setting [1] and 5.54 ± 0.077 under setting [2].

For the sequence GHRSIYLALKLPDGSYALNGEYTL [ADAMTS4], the protein stability index by setting is: under setting [1], 2.96 ± 0.94; under setting [2], 2.63 ± 0.67.

As to GKAATMEIPIHGNGEARQLPEDDG [ARFIP2], the protein stability index was found to be 5.58 ± 0.15 under setting [1] and 5.34 ± 0.21 under setting [2].

With GKDSRWLPSLVLARLVFVPLLLLC [SLC29A1], the protein stability index is, setting by setting: under setting [1], 2.68 ± 0.78; under setting [2], 2.48 ± 0.45.

On to GKEFGYFPRDAVQIEEVFISEEIQ [MIA2], for which the protein stability index came out at 3.88 ± 0.42 under setting [1] and 3.77 ± 0.45 under setting [2].

With GKRYCRGKVLGKGGFAKCYEMTDL [PLK2], the protein stability index reads like this: under setting [1], 2.79 ± 0.35; under setting [2], 2.92 ± 0.27.

Consider GLGELGAALLQLVRRLQALRLERE [ESRRA], for which the protein stability index came out at 2.66 ± 0.21 under setting [1] and 2.54 ± 0.14 under setting [2].

In turn, GLKLIQIQDNGTGIRKEDLDIVCE [MLH1] registered a protein stability index under setting [1] of 3.56 ± 0.37 and a protein stability index under setting [2] of 3.87 ± 0.75.

GLLSLLLPETLNSPLLETFSDLQV [SLC22A15]: the protein stability index under setting [1] is 2.47 ± 0.67 and the protein stability index under setting [2] was 2.68 ± 0.68.

As to GLQSYQQALLRISLDKVQRSLGPR [SERTAD3], the protein stability index stood at 2.43 ± 0.27 under setting [1] and 2.26 ± 0.36 under setting [2].

Consider GLSLCQFQNFSLHDPLYGKLFSTY [LPCAT4], for which the protein stability index reads like this: under setting [1], 1.81 ± 0.56; under setting [2], 2.06 ± 0.21.

As for GLSQVLLRGGGQVLLGWTLHYFPF [POMT2], the protein stability index was determined as 2.95 ± 0.26 under setting [1] and 2.97 ± 0.64 under setting [2].

GMEGLLGTLVQLLGSDDINVVTCA [CTNNB1]: the protein stability index came to 2.34 ± 0.55 under setting [1] and 2.46 ± 0.15 under setting [2].

Take GMSYLYASWMYQLQHGDQLSICFT [TEX19]: the protein stability index was 3 ± 0.39 under setting [1] and 2.92 ± 0.42 under setting [2].

Consider GNDSFQLQVTEDVNSSIKTFFCPN [CLCN6], for which the protein stability index by setting is: under setting [1], 3.54 ± 0.31; under setting [2], 3.6 ± 0.26.

As to GNPDPEITWFKDFLPVDTSNNNGR [PTPRD], the protein stability index by setting is: under setting [1], 4.27 ± 0.31; under setting [2], 4.76 ± 0.26.

Turning to GNPEPVSYYIIQHKPKNSEELYKE [PTPRD], the protein stability index reads like this: under setting [1], 3.77 ± 0.34; under setting [2], 3.47 ± 0.54.

In the case of GNTVPAVEPGTPPLDILAQPLEAS [DNAAF3], the protein stability index runs as follows: under setting [1], 5.19 ± 0.18; under setting [2], 5.03 ± 0.29.

As for GPADCSPPHPAPAPQHPAASALRT [DYRK1B], the protein stability index is, setting by setting: under setting [1], 4.81 ± 0.24; under setting [2], 4.92 ± 0.15.

GPDGQEMDPPNPEEVKTPEEEMRS [GAGE1]: the protein stability index is 5.7 ± 0.3 under setting [1] and 5.38 ± 0.42 under setting [2].

On to GPRPVQSVVPEMEESGAQLLLEML [CDK4], for which the protein stability index amounted to 3.91 ± 0.66 under setting [1] and 3.71 ± 0.15 under setting [2].

As to GPTGVTMTSNPITWGQIKKTTQEA [CDK11A], the protein stability index was found to be 4.55 ± 0.21 under setting [1] and 4.51 ± 0.4 under setting [2].

Sequence GRGLLRWDSFSAWLHCVCVVGFDL [DENND6A] displayed a protein stability index under setting [1] of 2.77 ± 0.58 and a protein stability index under setting [2] of 2.83 ± 0.69.

For the sequence GRLGKQCRERWHNHLNPEVKKSCW [MYBL2], the protein stability index reads like this: under setting [1], 2.42 ± 0.17; under setting [2], 2.99 ± 0.41.

For GRSGPGCAVLDDSIYLVGGYSWSM [KLHL14], the protein stability index is, setting by setting: under setting [1], 2.7 ± 0.39; under setting [2], 2.38 ± 0.63.

GSARSHASSRASENQSPSSSNYFS [ZBTB22]: the protein stability index turned out to be 4.28 ± 0.22 under setting [1] and 4.74 ± 0.2 under setting [2].

Consider GSEVVPVISPMYQLHKPLAEGTPR [IKZF1], for which the protein stability index runs as follows: under setting [1], 3.56 ± 0.16; under setting [2], 4.21 ± 0.49.

Consider GSIPEFFHIMKRKFTNKEWETIRS [AASDHPPT], for which the protein stability index runs as follows: under setting [1], 2.73 ± 0.27; under setting [2], 2.46 ± 0.3.

GSLSLSFEREPSTSDLGTTDVQKK [RIPK4]: the protein stability index reads like this: under setting [1], 5.26 ± 0.45; under setting [2], 5.31 ± 0.064.

Turning to GSSDSEEERATRLAELQEQLKAVH [BRD3], the protein stability index reads like this: under setting [1], 5.13 ± 0.23; under setting [2], 5.15 ± 0.27.

Take GTKLIFRRRPRQKEAGLSQSHDDL [C2CD2L]: the protein stability index reads like this: under setting [1], 4.03 ± 0.46; under setting [2], 4.04 ± 0.3.

For the sequence GTSDYDDVLSCEYYSPILDQWTPI [KLHL13], the protein stability index by setting is: under setting [1], 2.41 ± 0.33; under setting [2], 2.34 ± 0.19.

Turning to GVDHTKMSLHGASGGHERSRDRRR [BTBD10], the protein stability index reads like this: under setting [1], 5.26 ± 0.27; under setting [2], 5.3 ± 0.24.

With GWCIFVYNLSPEADESVLWQLFGP [ELAVL3], the protein stability index runs as follows: under setting [1], 2.8 ± 1.4; under setting [2], 3.7 ± 1.2.

Regarding GWYRPPFSRVVHLYRNGKDQDGDQ [MOG], the protein stability index is, setting by setting: under setting [1], 3.67 ± 0.34; under setting [2], 3.73 ± 0.26.

For GYCSNQLAAKALLDQKKQDPRVQD [NET1], the protein stability index amounted to 4.89 ± 0.23 under setting [1] and 4.9 ± 0.21 under setting [2].

Regarding GYLVTKVVAVDRDSGQNAWLSYRL [PCDHGA10], the protein stability index reads like this: under setting [1], 2.6 ± 0.56; under setting [2], 2.58 ± 0.69.

Regarding HATALVEAFRLKQQLHARYVLNLL [PPEF2], the protein stability index under setting [1] was 2.43 ± 0.38 and the protein stability index under setting [2] was 2.6 ± 0.51.

Turning to HAVVGVATALAPLQTDHYAALLGS [SPSB2], the protein stability index by setting is: under setting [1], 2.37 ± 0.18; under setting [2], 2.29 ± 0.39.

In turn, HAYIHSVQFSHHVFLNLHTLKFYC [USP39] yielded a protein stability index under setting [1] of 3.33 ± 0.42 and a protein stability index under setting [2] of 3.04 ± 0.56.

As for HECKLTQEILELIDREVDLMMRGV [IQUB], the protein stability index is, setting by setting: under setting [1], 2.88 ± 0.2; under setting [2], 3.17 ± 0.67.

As for HELVWAKMKGFGFWPAKVMQKEDN [ZMYND11], the protein stability index under setting [1] stood at 3.06 ± 0.37 and the protein stability index under setting [2] is 3.09 ± 0.47.

For the sequence HGDDLKNTKNEISELTRLIQRIRS [KRT71], the protein stability index reads like this: under setting [1], 2.77 ± 0.18; under setting [2], 3.11 ± 0.3.

HGEELRVSARSREGRGGRPGSTRP [HAGHL]: the protein stability index reads like this: under setting [1], 4.92 ± 0.2; under setting [2], 4.93 ± 0.16.

As for HGNEVLGRELLLLLVQFVCQEYLA [CPXM2], the protein stability index by setting is: under setting [1], 3.11 ± 1.1; under setting [2], 2.98 ± 1.2.

As to HGRIPDPDDFVPPVPPPSYFATFY [FAM189A2], the protein stability index reads like this: under setting [1], 2.24 ± 0.25; under setting [2], 2.23 ± 0.34.

Take HIKFPIDYPYSPPTFRFLTKMWHP [UBE2R2]: the protein stability index under setting [1] was 2.3 ± 0.32 and the protein stability index under setting [2] stood at 2.24 ± 0.39.

Consider HKLVSASTDNIVSQWDVLSGDCDQ [RBBP5], for which the protein stability index was 4.73 ± 0.18 under setting [1] and 4.68 ± 0.11 under setting [2].

In turn, HQDLKYISPETMVALLTGKFSNIV [CDC25B] gave a protein stability index under setting [1] of 2.23 ± 0.41 and a protein stability index under setting [2] of 2.55 ± 0.54.

Sequence HQSLSLASSPKGTIENILDNDPRD [CDC25A] returned a protein stability index under setting [1] of 5.3 ± 0.2 and a protein stability index under setting [2] of 5.22 ± 0.18.

For the sequence HRFVEKPQVFVSNKINAGMYILSP [GMPPB], the protein stability index by setting is: under setting [1], 2.25 ± 0.21; under setting [2], 2.29 ± 0.13.

As to HSQFIGYPITLYLEKEREKEISDD [HSP90AB1], the protein stability index runs as follows: under setting [1], 3.82 ± 0.082; under setting [2], 3.9 ± 0.26.

As for HTEERPYECNHCGKGFRHSSSLAQ [ZNF8], the protein stability index by setting is: under setting [1], 3.58 ± 0.3; under setting [2], 3.79 ± 0.27.

With HVAVEHQLPPASRCVLVFEQVRFL [SOAT2], the protein stability index runs as follows: under setting [1], 2.66 ± 0.86; under setting [2], 2.36 ± 0.61.

For the sequence HVFIGDHSGQVTILKLEQENCTLV [WDFY2], the protein stability index by setting is: under setting [1], 2.09 ± 0.39; under setting [2], 2.19 ± 0.19.

As to HVKETQPPETVQNWIELLSGETWN [GOLPH3], the protein stability index under setting [1] was 3.67 ± 0.36 and the protein stability index under setting [2] was found to be 3.86 ± 0.41.

On to HVSYRELGACVRTAVAQGGWRSLW [SLC25A39], for which the protein stability index was found to be 2.01 ± 0.19 under setting [1] and 2.13 ± 0.2 under setting [2].

In the case of IADYLLLPLAEREHVSRALCIHTG [TRIB1], the protein stability index amounted to 2.23 ± 0.47 under setting [1] and 2.02 ± 0.33 under setting [2].

With IANPNSLHHVKTMWYPEIKHFCPR [RHOBTB2], the protein stability index stood at 2.36 ± 0.25 under setting [1] and 2.64 ± 0.2 under setting [2].

On to ICSSLQNLEKTIFCLQKLISLHPF [C8orf76], for which the protein stability index is, setting by setting: under setting [1], 3.28 ± 1; under setting [2], 2.65 ± 0.39.

For the sequence IDFLRVVRNQQSLAVSNMGARSKG [PTPN9], the protein stability index by setting is: under setting [1], 2.76 ± 0.17; under setting [2], 3.46 ± 0.098.

IEDSTGLNRPGPAPLSSRKHVLYV [TCF25] gave a protein stability index under setting [1] of 2.27 ± 0.45 and a protein stability index under setting [2] of 2.35 ± 0.31.

As for IEQFSESHAIHVEEQSDQSFSSLE [IQUB], the protein stability index by setting is: under setting [1], 5.1 ± 0.095; under setting [2], 5.14 ± 0.17.

IERCIFPERIYQGSSGSYFVKDPQ [PI4K2A]: the protein stability index is 3.25 ± 0.22 under setting [1] and 3.2 ± 0.35 under setting [2].

IFSFLPAPDRLRASASCSHWRECL [FBXO33] displayed a protein stability index under setting [1] of 2.41 ± 0.28 and a protein stability index under setting [2] of 2.07 ± 0.38.

For IITRHNLTYEFLQARLRQHYQTI [CLCN6], the protein stability index amounted to 2.75 ± 0.49 under setting [3] and 2.69 ± 0.46 under setting [4].

Consider ILTATVDNANILLQIDNARLAADD [KRT17], for which the protein stability index by setting is: under setting [1], 3.29 ± 0.075; under setting [2], 3.26 ± 0.19.
